# Positions of bridges follow the written chain, without caps; N, C: chain ends. No end group written: not given here.
# Molecular target: T1, recombinant human PD-L1 extracellular domain (ECD) protein (cat #FCL0784B, G&P Biosciences) (human, UniProt Q9NZQ7 19-238)
# T1 construct: extracellular domain; Bought protein; also called hPD-L1 protein; human PD-L1 protein
# Experiment: SPR, PD-L1 immobilised
# Protocol: (§1) Evaluation of Binding Kinetics and Affinity By Surface Plasmon Resonance (SPR). […] PD-L1 protein was diluted to 10 μg/mL with sodium acetate buffer (pH 5.0, GE Healthcare, PA) and covalently coated onto a CM5 sensor chip (CM Dextran Sensor Chip, Biosensing Instrument) using the standard Amine Coupling Kit (GE Healthcare, PA). Approximately 6500 RU of PD-L1 protein were immobilized onto the chip. A second channel was used as a reference. HBS-EP+ buffer (GE Healthcare) was employed at a flow rate of 60 μL/min. […] The CM5 sensor chip was regenerated with 10 mM NaOH for 20 seconds. The results were analyzed using the software of Bi data analysis software.
# T1 sequence (Q9NZQ7 19-238): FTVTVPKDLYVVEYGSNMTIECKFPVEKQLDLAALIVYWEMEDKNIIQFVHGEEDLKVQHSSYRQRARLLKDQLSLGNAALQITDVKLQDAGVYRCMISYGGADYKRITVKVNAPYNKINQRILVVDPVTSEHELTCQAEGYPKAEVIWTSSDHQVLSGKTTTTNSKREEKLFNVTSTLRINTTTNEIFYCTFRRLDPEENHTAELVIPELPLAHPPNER
row,Molecule,Kd
1,"CHRSYYTWNLNC (disulfide 1-12, Cyclic variant of CLP002) [CLP2C14]",2.78 nM
2,"CHRSYYCWNLNT (disulfide 1-7, Cyclic variant of CLP002) [CLP2C21]",124 nM
3,WHRSYYTWN (Truncated form of CLP002 (9 residues)) [CLP2TR3],258 nM

# Molecular target: T2, mouse PD-L1 protein (G&P Biosciences, cat #FCL3502B) (mouse, UniProt Q9EP73 19-239, limits assumed)
# T2 construct: Bought protein; construct not described; also called mPD-L1 protein
# T2 sequence (Q9EP73 19-239 limits assumed): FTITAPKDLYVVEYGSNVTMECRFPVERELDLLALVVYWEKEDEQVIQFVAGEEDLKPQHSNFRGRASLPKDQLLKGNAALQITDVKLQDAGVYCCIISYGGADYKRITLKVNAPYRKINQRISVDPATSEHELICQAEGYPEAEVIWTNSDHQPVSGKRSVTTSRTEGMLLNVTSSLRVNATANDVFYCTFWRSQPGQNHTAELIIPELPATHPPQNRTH
# Experiment: blocking of the mouse PD-1/PD-L1 interaction (text value, differs from Table 3); text of paragraph 79, not Table 3
# Protocol: (§2) Various concentrations of peptides were loaded into the wells and incubated for 1 hour at room temperature. […] Streptavidin-HRP (R&D systems) and chromogenic substrate were added into the wells. OD₄₅₀ was then recorded and referenced to OD₅₄₀.
row,Molecule,IC50
1,"WHFSYNWRWLPP (not fully specified, 12-mer from phage display) [CLP003 peptide]",1960 nM
2,"WHRSYYTWNLNT (not fully specified, 12-mer from phage display) [CLP002 peptide]",1510 nM

# Molecular target: T1, recombinant human PD-L1 extracellular …
# Experiment: SPR, human PD-L1 ECD immobilised on CM5 chip
# Protocol: as §1
# The PD-L1 protein was immobilized on a CM5 golden chip by the direct amine coupling method. […] In a recent study, scientists constructed several chimeric antigen receptor (CAR) T cells with different affinities to ICAM-1.
Molecule,Kd,koff,kon
"WHFSYNWRWLPP (not fully specified, 12-mer from phage display) [CLP003 peptide]",117 nM,0.00162 s⁻¹,22600 M⁻¹ s⁻¹
"WHRSYYTWNLNT (not fully specified, 12-mer from phage display) [CLP002 peptide]",366 nM,0.00145 s⁻¹,4520 M⁻¹ s⁻¹
"DYHDPSLPTLRK (not fully specified, 12-mer from phage display) [CLP004 peptide]",544 nM,0.00275 s⁻¹,5140 M⁻¹ s⁻¹
"HYPFRPHANQAS (not fully specified, 12-mer from phage display) [CLP001 peptide]",534 nM,0.00281 s⁻¹,5190 M⁻¹ s⁻¹

# Molecular target: T3, recombinant human PD-L1 protein (Acro Biosystems, cat #EP-101 assay pair) (human, UniProt Q9NZQ7 19-238)
# T3 construct: Bought protein; construct not described; also called hPD-L1; human PD-L1 (AcroBiosystems, cat #EP-101)
# T3 sequence (Q9NZQ7 19-238 limits assumed): as the sequence (Q9NZQ7 19-238) above
# Experiment: ELISA, blocking of biotinylated human PD-1 binding to coated human PD-L1
# Protocol: (§3) Unbound protein was removed by washing twice with PBS (pH 7.2-7.4), 2% BSA was added for 1.5 h at 37° C. to block the plate. Specific concentrations of the peptides were dispensed into the appropriate wells and incubated for 2 h at 37° C. […] This was followed by the addition of streptavidin-HRP and chromogenic substrate (R&D systems). The color reaction was terminated with 2N H₂SO₄, absorbance was recorded at OD450 and referenced to OD540.
row,Molecule,IC50
1,"CHRSYYTWNLNC (disulfide 1-12, Cyclic variant of CLP002) [CLP2C14]",180 nM
2,"CHRSYYCWNLNT (disulfide 1-7, Cyclic variant of CLP002) [CLP2C21]",440 nM

# Molecular target: mouse PD-L1 protein (G&P Biosciences, cat #FCL3502B) (mouse) (UniProt Q9EP73)
# Sequence (Q9EP73 19-239 limits assumed): as the sequence (Q9EP73 19-239 limits assumed) above
# Experiment: ELISA, blocking of mouse PD-1 binding to mouse PD-L1 protein, 10 µM
row,Molecule,blocking efficiency at 10 µM
1,"anti-mouse PD-L1 antibody (BioXcell, 10F.9G2)",92%

# Molecular target: T4, mouse PD-L1 (Acro Biosystems, cat #PD1-M5220) (mouse, UniProt Q9EP73 19-238)
# T4 construct: Bought protein; construct not described; also called mPD-L1
# T4 sequence (Q9EP73 19-238 limits assumed): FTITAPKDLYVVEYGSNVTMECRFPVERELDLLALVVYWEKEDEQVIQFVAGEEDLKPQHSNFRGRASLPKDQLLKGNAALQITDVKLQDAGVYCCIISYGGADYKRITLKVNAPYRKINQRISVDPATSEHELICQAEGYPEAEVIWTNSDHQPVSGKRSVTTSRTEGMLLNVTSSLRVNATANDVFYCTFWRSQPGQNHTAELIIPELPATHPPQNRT
# Experiment: ELISA, blocking of biotinylated mouse PD-1 binding to coated mouse PD-L1
# Protocol: as §3
# (§4) In this Example, various properties of the peptides of SEQ ID NO:5, SEQ ID NO:6 and SEQ ID NO:7 were evaluated. The procedures for generating these values are described above in the beginning of the Examples section.
row,Molecule,IC50
1,"CHRSYYTWNLNC (disulfide 1-12, Cyclic variant of CLP002) [CLP2C14]",550 nM
2,"CHRSYYCWNLNT (disulfide 1-7, Cyclic variant of CLP002) [CLP2C21]",460 nM

# Molecular target: T5, bovine serum albumin (bovine, UniProt P02769 25-607)
# T5 construct: Specificity control in SPR; also called BSA
# T5 sequence (P02769 25-607 limits assumed): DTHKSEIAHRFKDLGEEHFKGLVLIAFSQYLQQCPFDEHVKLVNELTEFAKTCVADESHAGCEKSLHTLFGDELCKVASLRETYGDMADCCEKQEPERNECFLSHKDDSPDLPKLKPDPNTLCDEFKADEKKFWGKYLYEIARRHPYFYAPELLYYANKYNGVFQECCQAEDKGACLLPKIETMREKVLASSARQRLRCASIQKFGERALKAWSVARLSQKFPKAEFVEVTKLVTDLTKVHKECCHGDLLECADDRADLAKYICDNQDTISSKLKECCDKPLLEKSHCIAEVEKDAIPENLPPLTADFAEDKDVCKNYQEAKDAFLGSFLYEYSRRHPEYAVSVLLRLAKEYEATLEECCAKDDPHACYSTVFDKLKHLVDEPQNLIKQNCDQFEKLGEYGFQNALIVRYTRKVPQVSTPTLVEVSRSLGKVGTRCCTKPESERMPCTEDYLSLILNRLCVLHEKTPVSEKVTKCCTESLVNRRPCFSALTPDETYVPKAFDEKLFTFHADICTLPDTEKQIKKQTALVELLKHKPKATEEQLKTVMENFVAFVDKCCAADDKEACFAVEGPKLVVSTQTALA
# Experiment: SPR, BSA immobilised
row,Molecule,Kd
1,"CHRSYYTWNLNC (disulfide 1-12, Cyclic variant of CLP002) [CLP2C14]",408 nM
2,"CHRSYYCWNLNT (disulfide 1-7, Cyclic variant of CLP002) [CLP2C21]",1240 nM
3,WHRSYYTWN (Truncated form of CLP002 (9 residues)) [CLP2TR3],2050 nM

# Molecular target: T1, recombinant human PD-L1 extracellular …
# Experiment: PD1/PD-L1 blocking assay of Table 5 (format not stated), 10 µM
row,Molecule,% Blocking efficiency at 10 µM
1,"CHRSYYTWNLNC (disulfide 1-12, Cyclic variant of CLP002) [CLP2C14]",75%
2,"CHRSYYCWNLNT (disulfide 1-7, Cyclic variant of CLP002) [CLP2C21]",78%
3,WHRSYYTWN (Truncated form of CLP002 (9 residues)) [CLP2TR3],80%

# Molecular target: T3, recombinant human PD-L1 protein (Acro …)
# Experiment: competitive SPR, peptide preincubated with human PD-L1, injected over immobilised PD-1
# Protocol: BI-4500A SPR and a CM-5 sensor chip pre-functionalized with streptavidin (Biosensing Instrument Inc., Tempe, Ariz.) were employed for the SPR analysis. […] Data was analyzed with SPR Data Analysis Version 3.8.4 (Biosensing Instrument Inc., Tempe, Ariz.).
# as §4
row,Molecule,IC50
1,"CHRSYYTWNLNC (disulfide 1-12, Cyclic variant of CLP002) [CLP2C14]",119 nM
2,"CHRSYYCWNLNT (disulfide 1-7, Cyclic variant of CLP002) [CLP2C21]",143 nM

# Molecular target: T5, bovine serum albumin
# Experiment: SPR, albumin (BSA) immobilised, peptide series injected
# Protocol: as §1
# Nonspecific binding of the peptides against bovine serum albumin (BSA) using SPR was measured. […] MCF-7 human cancer cells are PD-L1 deficient and used as a negative control in this study. […] Results are represented as the mean±SD (n=3).
row,Molecule,binding result
1,"WHFSYNWRWLPP (not fully specified, 12-mer from phage display) [CLP003 peptide]",no binding
2,"WHRSYYTWNLNT (not fully specified, 12-mer from phage display) [CLP002 peptide]",no binding
3,"DYHDPSLPTLRK (not fully specified, 12-mer from phage display) [CLP004 peptide]",no binding
4,"HYPFRPHANQAS (not fully specified, 12-mer from phage display) [CLP001 peptide]",no binding

# Molecular target: T1, recombinant human PD-L1 extracellular …
# Experiment: PD1/PD-L1 blocking assay of Table 5 (format not stated)
row,Molecule,IC50
1,"CHRSYYTWNLNC (disulfide 1-12, Cyclic variant of CLP002) [CLP2C14]",5 nM
2,"CHRSYYCWNLNT (disulfide 1-7, Cyclic variant of CLP002) [CLP2C21]",6 nM

# Molecular target: T2, mouse PD-L1 protein (G&P Biosciences, …)
# Experiment: ELISA, blocking of mouse PD-1 binding to coated mouse PD-L1 protein
# Protocol: as §2
Molecule,Blocking Efficiency (%),IC50
"WHFSYNWRWLPP (not fully specified, 12-mer from phage display) [CLP003 peptide]",46%,2260 nM
"WHRSYYTWNLNT (not fully specified, 12-mer from phage display) [CLP002 peptide]",68%,1910 nM
"DYHDPSLPTLRK (not fully specified, 12-mer from phage display) [CLP004 peptide]",48%,1910 nM
"HYPFRPHANQAS (not fully specified, 12-mer from phage display) [CLP001 peptide]",34%,2430 nM

# Molecular target: T3, recombinant human PD-L1 protein (Acro …)
# Experiment: ELISA, blocking of biotinylated human PD-1 binding to coated human PD-L1, 10 µM
# Protocol: as §3, §4
row,Molecule,% Blocking efficiency at 10 µM (ELISA) hPD-L1
1,"CHRSYYTWNLNC (disulfide 1-12, Cyclic variant of CLP002) [CLP2C14]",75%
2,"CHRSYYCWNLNT (disulfide 1-7, Cyclic variant of CLP002) [CLP2C21]",85.9%
3,WHRSYYTWN (Truncated form of CLP002 (9 residues)) [CLP2TR3],80%

# Molecular target: T1, recombinant human PD-L1 extracellular …
# Experiment: ELISA, blocking of PD-1 binding to coated human PD-L1 protein
# Protocol: as §2
Molecule,Blocking Efficiency (%),IC50
"WHFSYNWRWLPP (not fully specified, 12-mer from phage display) [CLP003 peptide]",60%,2220 nM
"WHRSYYTWNLNT (not fully specified, 12-mer from phage display) [CLP002 peptide]",85%,2170 nM
"DYHDPSLPTLRK (not fully specified, 12-mer from phage display) [CLP004 peptide]",52%,1170 nM
"HYPFRPHANQAS (not fully specified, 12-mer from phage display) [CLP001 peptide]",0%,

# Molecular target: T6, human PD-L1 on DU-145 cancer cells (human, UniProt Q9NZQ7 19-290)
# T6 construct: whole, on cells; Endogenous PD-L1 of a PD-L1-positive human cancer cell line
# T6 sequence (Q9NZQ7 19-290): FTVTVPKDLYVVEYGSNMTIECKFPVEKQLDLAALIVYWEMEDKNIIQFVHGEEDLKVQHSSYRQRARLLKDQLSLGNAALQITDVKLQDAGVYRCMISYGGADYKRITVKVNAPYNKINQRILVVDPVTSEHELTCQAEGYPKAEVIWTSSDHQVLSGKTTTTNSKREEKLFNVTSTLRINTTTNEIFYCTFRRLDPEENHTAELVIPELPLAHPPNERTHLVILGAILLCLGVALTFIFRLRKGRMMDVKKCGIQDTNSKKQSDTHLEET
# Experiment: blocking of PD-1 binding to DU-145 cells
Molecule,Blocking Efficiency (%),IC50
"WHFSYNWRWLPP (not fully specified, 12-mer from phage display) [CLP003 peptide]",56%,3050 nM
"WHRSYYTWNLNT (not fully specified, 12-mer from phage display) [CLP002 peptide]",80%,1430 nM
"DYHDPSLPTLRK (not fully specified, 12-mer from phage display) [CLP004 peptide]",60%,200 nM
"HYPFRPHANQAS (not fully specified, 12-mer from phage display) [CLP001 peptide]",0%,

# Molecular target: T7, mouse PD-L1 on 4T1 cancer cells (mouse, UniProt Q9EP73 19-290)
# T7 construct: whole, on cells; also called mouse cancer cell line 4T1
# T7 sequence (Q9EP73 19-290): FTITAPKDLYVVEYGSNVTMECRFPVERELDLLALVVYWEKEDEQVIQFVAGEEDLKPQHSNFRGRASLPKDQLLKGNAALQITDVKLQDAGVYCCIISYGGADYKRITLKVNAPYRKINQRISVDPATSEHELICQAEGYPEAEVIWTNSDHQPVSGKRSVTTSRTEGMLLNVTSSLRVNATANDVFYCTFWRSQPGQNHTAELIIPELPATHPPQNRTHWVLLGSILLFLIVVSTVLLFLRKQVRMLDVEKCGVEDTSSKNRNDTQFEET
# Experiment: blocking of mouse PD-1 binding to 4T1 cells
Molecule,Blocking Efficiency (%),IC50
"WHFSYNWRWLPP (not fully specified, 12-mer from phage display) [CLP003 peptide]",50%,1000 nM
"WHRSYYTWNLNT (not fully specified, 12-mer from phage display) [CLP002 peptide]",61%,2440 nM
"DYHDPSLPTLRK (not fully specified, 12-mer from phage display) [CLP004 peptide]",34%,730 nM
"HYPFRPHANQAS (not fully specified, 12-mer from phage display) [CLP001 peptide]",35%,910 nM

# Molecular target: T1, recombinant human PD-L1 extracellular …
# Experiment: blocking of the human CD80/PD-L1 interaction
row,Molecule,IC50
1,"WHFSYNWRWLPP (not fully specified, 12-mer from phage display) [CLP003 peptide]",1620 nM
2,"WHRSYYTWNLNT (not fully specified, 12-mer from phage display) [CLP002 peptide]",2450 nM

# Molecular target: T1, recombinant human PD-L1 extracellular …
# Experiment: blocking of the human CD80/PD-L1 interaction, 10 µM
row,Molecule,blocking efficiency at 10 µM
1,"WHFSYNWRWLPP (not fully specified, 12-mer from phage display) [CLP003 peptide]",~48%
2,"WHRSYYTWNLNT (not fully specified, 12-mer from phage display) [CLP002 peptide]",~48%
3,"DYHDPSLPTLRK (not fully specified, 12-mer from phage display) [CLP004 peptide]",~27%
4,"HYPFRPHANQAS (not fully specified, 12-mer from phage display) [CLP001 peptide]",~17%

# Reference: US20220119451A1 (published 2022)
